From paper PMC3998888

Molecular target: ALG-1(anti) (C. elegans (endogenous in whole animals))
Test: co-IP; ALG-1 immunoprecipitated with a custom ALG-1-specific polyclonal antibody (Anaspec) from whole protein lysate of wild type or alg-1(anti) animals; precipitate probed by Western blot with anti-ALG-1, anti-DCR-1 and anti-AIN-1; signals quantified as ratios to ALG-1 and normalised to wild type

Row | fold increase in co-precipitated DCR-1 against wild type ALG-1 [fold] | fold decrease in co-precipitated AIN-1 against wild type ALG-1 [fold] | fold decrease in co-precipitated AIN-1 against wild type ALG-1 (average of biological replicates) [fold] | Substance
1 | 4 | – | – | DCR-1 (Dicer) (from UniProt P34529 1-1910) (enzyme)
2 | – | 3 | 2 | AIN-1 (GW182) (natural protein)
